The Kd is the free concentration of one partner at which half of the binding sites on the other are occupied at equilibrium, for simple one-to-one binding.

The values below come from paper PMC6019379, “RecA-like domain 2 of DNA-dependent ATPase A domain, a SWI2/SNF2 protein, mediates conformational integrity and ATP hydrolysis” (Bioscience Reports, 2018).

Common to all, as to settings: protein: recombinant; tags: His (Ni-NTA, pET-14b); hairpin
The target in one data set is T1, ADAAD R592A (Bos taurus (bovine), UniProt Q9TTA5 221-940, R812A).
T1 sequence: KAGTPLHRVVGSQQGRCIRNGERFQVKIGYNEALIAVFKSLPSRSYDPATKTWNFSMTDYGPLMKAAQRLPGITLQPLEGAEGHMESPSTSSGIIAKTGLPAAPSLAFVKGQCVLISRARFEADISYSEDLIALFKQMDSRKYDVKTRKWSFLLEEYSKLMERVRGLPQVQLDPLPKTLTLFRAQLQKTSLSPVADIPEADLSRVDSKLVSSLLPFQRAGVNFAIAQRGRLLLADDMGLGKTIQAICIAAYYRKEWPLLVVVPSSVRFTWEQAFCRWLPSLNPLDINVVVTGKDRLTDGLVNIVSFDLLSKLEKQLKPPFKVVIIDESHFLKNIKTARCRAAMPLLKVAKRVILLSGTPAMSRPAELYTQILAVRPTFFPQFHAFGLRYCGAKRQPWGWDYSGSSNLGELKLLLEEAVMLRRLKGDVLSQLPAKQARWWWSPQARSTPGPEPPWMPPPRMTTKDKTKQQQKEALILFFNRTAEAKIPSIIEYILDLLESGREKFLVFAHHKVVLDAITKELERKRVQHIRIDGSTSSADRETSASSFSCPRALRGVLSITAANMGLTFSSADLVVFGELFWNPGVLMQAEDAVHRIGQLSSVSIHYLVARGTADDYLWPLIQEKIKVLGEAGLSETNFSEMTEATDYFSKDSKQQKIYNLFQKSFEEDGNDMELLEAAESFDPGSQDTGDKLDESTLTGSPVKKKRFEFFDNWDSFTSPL
In words: intrinsic tryptophan fluorescence titration; no ATP; Fluorescence titration (ex 295 nm, em 340 nm), one-site saturation fit; buffer, salt, pH and temperature not given in the material. Wild-type ADAAD Kd values are cited from ref 24 and not listed.

The next data set deals with T2, ADAAD F507A/R592A (Bos taurus (bovine), UniProt Q9TTA5 221-940, F727A;R812A).
T2 sequence: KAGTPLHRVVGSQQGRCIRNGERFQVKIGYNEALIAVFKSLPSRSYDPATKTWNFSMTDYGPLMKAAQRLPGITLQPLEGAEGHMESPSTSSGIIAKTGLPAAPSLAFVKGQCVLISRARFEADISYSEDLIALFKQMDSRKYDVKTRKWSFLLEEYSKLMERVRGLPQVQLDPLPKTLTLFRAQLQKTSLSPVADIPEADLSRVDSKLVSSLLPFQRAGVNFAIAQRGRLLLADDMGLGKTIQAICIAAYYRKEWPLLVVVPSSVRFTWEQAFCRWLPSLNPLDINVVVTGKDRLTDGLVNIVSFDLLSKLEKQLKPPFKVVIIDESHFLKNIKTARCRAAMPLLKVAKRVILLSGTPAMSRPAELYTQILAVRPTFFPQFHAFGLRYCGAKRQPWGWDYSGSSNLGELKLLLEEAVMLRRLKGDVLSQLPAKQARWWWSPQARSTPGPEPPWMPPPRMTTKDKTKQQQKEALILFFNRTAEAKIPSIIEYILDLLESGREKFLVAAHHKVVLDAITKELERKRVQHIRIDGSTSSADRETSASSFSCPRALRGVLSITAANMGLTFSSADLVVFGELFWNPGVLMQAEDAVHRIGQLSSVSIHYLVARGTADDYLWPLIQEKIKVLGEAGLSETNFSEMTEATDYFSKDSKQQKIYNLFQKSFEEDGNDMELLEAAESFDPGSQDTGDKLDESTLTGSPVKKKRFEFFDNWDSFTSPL
Described as above.

The target of another data set is T3, ADAAD T560A (Bos taurus (bovine), UniProt Q9TTA5 221-940, T780A).
T3 sequence: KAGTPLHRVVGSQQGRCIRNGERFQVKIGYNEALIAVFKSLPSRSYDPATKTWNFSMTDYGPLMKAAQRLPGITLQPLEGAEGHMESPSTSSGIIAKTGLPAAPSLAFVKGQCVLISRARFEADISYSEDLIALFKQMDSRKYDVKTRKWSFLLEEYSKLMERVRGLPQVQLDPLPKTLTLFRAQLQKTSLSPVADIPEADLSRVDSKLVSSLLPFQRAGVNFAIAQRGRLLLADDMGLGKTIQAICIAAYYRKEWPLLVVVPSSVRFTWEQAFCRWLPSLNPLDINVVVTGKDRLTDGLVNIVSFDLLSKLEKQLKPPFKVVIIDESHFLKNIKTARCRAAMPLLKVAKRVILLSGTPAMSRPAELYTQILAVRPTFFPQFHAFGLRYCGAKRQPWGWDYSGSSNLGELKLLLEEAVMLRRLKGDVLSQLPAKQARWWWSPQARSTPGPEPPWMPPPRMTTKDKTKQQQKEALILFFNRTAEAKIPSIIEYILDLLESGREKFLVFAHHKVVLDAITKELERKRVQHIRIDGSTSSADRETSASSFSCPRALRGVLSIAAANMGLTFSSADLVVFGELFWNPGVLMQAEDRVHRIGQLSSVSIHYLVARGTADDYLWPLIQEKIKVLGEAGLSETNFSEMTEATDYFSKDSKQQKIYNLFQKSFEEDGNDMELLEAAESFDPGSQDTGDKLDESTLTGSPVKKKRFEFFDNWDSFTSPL
In words: intrinsic tryptophan fluorescence titration; saturating ATP; Fluorescence titration (ex 295 nm, em 340 nm), one-site saturation fit; buffer, salt, pH and temperature not given in the material. Wild-type ADAAD Kd values are cited from ref 24 and not listed.

Take GCGCAATTGCGCTCGACGATTTTTTAGCGCAATTGCGC (structured_DNA) [slDNA (stem-loop DNA)]: the Kd with ADAAD R592A stood at 31.5 ± 1.3 nM; in the data set with ADAAD F507A/R592A, 27.8 ± 3.6 nM; with ADAAD T560A it was 1.4 ± 0.3 nM.
